# Source: patent US20150150157A1, “PREPHENATE DEHYDROGENASES AND AROGENATE DEHYDROGENASES THAT ARE INSENSITIVE TO EFFECTOR FEEDBACK INHIBITION AND METHODS OF USING THE SAME” (Wisconsin Alumni Research Foundation, priority 2013, published 2015)
# B1: Glyma11g35760: soybean PDH enzyme, paralog of Glyma18g02650, tested as crude E. coli extract (protein)
# chain: MTTMSTSSSSQSLKIGIVGFGNFGQFLAKTMIKQGHTLTATSRSDYSQLCLQMGIHFFRDVSAFLAADIDVIVLCTSILSLSEVVGSMPLTSLKRPTLFVDVLSVKEHPRELLLRELPEDSDILCTHPMFGPQTANNGWTDHTFMYDKVRIRDEATCSSFIQIFATEGCKMVQMSCEEHDRAAAKSQFITHTIGRTLGEMDIQSTPIDTKGFETLVKLKETMMRNSFDLYSGLFVYNRFARQELENLEHAFYKVKETLMIQRSNGEQGHKRTES
# modifications: Glycine max
# notes: soybean PDH enzyme, paralog of Glyma18g02650, tested as crude E. coli extract
# B2: Glyma14g05990: soybean enzyme having predominately arogenate dehydrogenase activity (protein)
# chain: MSTWSLKIGVVGFGSFGQFLAKTMIKQGHTLRATSRTDYSLLCLPMGIQFFRDVAAFLEADNDVILVCTSILSLSEVLSSMPLTCLKRSTLFVDVLSVKEHPRNLLIKVLPEESDILCTHPMFGPDSGKDGWQDLTFVYDKVRIRDEAICSSFLHIFASEGCRMLQMSCEEHDKIAAKSQFITHTIGRTLAEMDIKSTPIDTKGFHSLVQLKDTTIRDSFDLYSGLFLHNRFAVQELENLEHALHKVKEMLVQRKSEELGLEKTEC
# modifications: Glycine max
# B3: AtADH2: Arabidopsis thaliana arogenate dehydrogenase 2, recombinant enzyme, inhibited by L-Tyr (protein, UniProt Q9LMR3 37-358, looked up)
# Arogenate dehydrogenase 2, …: IDAAQIFDYETQLKSEYRKSSALKIAVLGFGNFGQFLSKTLIRHGHDLITHSRSDYSDAANSIGARFFDNPHDLCEQHPDVVLLCTSILSTESVLRSFPFQRLRRSTLFVDVLSVKEFPKALFIKYLPKEFDILCTHPMFGPESGKHSWSGLPFVYDKVRIGDAASRQERCEKFLRIFENEGCKMVEMSCEKHDYYAAGSQFVTHTMGRVLEKYGVESSPINTKGYETLLDLVENTSSDSFELFYGLFMYNPNALEQLERLDMAFESVKKELFGRLHQQYRKQMFGGEVQSPKKTEQKLLNDGGVVPMNDISSSSSSSSSSS
# Tests used:
# Type in all cases: biochemical
# [1] = tested on: CM activity in the plastid fraction; assay: CM activity in plastidic fraction of soybean leaf with and without effector; conditions: 1 mM effector
# Procedure: (§1) CM activity from crude plant extracts and from cytosolic and plastidic fractions (FIG. 4I) was determined in the presence and absence of 1 mM L-Tyr or L-Trp (FIG. 4I) by detecting phenylpyruvate formation using the same HPLC method for HPLA detection (see above). Assays were set up as described above but were incubated for 60 min at 37° C. before addition of 1 N HCl. Phenylpyruvate was detected by UV absorbance at 270 nm and quantified by comparison to the authentic phenylpyruvate standard (Sigma-Aldrich).
# (§2) Ten grams of 4-week-old soybean leaves were harvested at the end of the night to deplete starch. The fresh tissues were homogenized using a Polytron (Brinkmann, Westhury, N.Y.) in 10 ml of the plastid isolation buffer (0.5 M sorbitol, 20 mM HEPES (pH 7.4), 10 mM KCl, 1 mM MgCl2, 1 mM EDTA, 5 mM DTT and 1% BSA) (Kong and Rawsthorne. Plant J, 6: 795-805 (1994)). The homogenate was filtered through two layers of micracloth. The residual homogenate left on the micracloth was homogenized again in 10 ml of the isolation buffer and passed through two layers of micracloth, which was repeated once more to yield ˜30 ml of homogenate. The combined homogenate was centrifuged at 2,500 g for 5 min. The pellet was washed twice with the isolation buffer, resuspended in 4 ml of lysis buffer (25 mM HEPES (pH 7.5), 50 mM KCl) and left on ice for 20 min to rapture the plastids. […]
# [2] = tested on: CM activity in the cytosol; assay: CM activity in cytosolic fraction of soybean leaf with and without effector; conditions: 1 mM effector
# Procedure: as §1, §2
# [3] = Qualitative HPLC detection of PDH activity in E. coli cell lysates expressing candidate enzymes; conditions: 2 mM prephenate, saturating conditions
# Procedure: ADH and PDH reactions contained 25 mM HEPES (pH 7.5), 50 mM KCl, 10% ethylene glycol, 1 mM NADP (or NAD^+), 2 mM substrate (L-arogenate or prephenate, respectively) unless otherwise noted. Arogenate was prepared by enzymatic conversion from prephenate (Sigma-Aldrich), as previously reported. Reactions were started by addition of enzyme from various sources and incubated at 37′ C. for a given amount of time, as noted below,
# HPLC-based methods were used to directly detect the final products of ADH and PDH assays, Tyr and HPP, respectively from crude E. coli extracts (FIG. 3B and FIG. 3C) and crude plant extracts (FIG. 2A and FIG. 6). For HPLC detection of PDH activity, reactions were incubated for 45 min and terminated by addition of NaBH4, which converts the reaction product HPP (which produced multiple peaks; FIG. 6) into hydroxyphenyllactic acid (HPLA), followed by neutralization with 100 μl of 6 N HCl. The conversion and recovery rate was 80±1.5% s.d. which was taken into account for the calculation of specific activity from crude plant extracts (FIG. 2C). HPLA was detected as a single peak (FIG. 2A) after being separated by HPLC (Agilent 1260, Santa Clara, Calif.) equipped with a ZORBA X SB-C18 column (Agitent) using a 6-min isocratic elution at 25% methanol in 0.1% phosphoric acid, followed by a 20-min linear gradient of 25-60% methanol at a flow rate of 1.0 ml/min. HPLA was detected using UV absorbance at 270 nm and quantified by a calibration curve generated from the authentic HPLA standard (Sigma-Aldrich). For HPLC-based detection of ADH activity (FIG. 3B), reactions were incubated for 45 min and terminated by addition of methanol to a final concentration of 66% (v/v). The product, Tyr, was derivatized with OPA and separated on a ZORBAX eclipse-XDB C18 column (Agilent) using a 30-min linear gradient of 20-45% methanol in 0.1% animonium acetate at a flow rate of 0.8 ml/min. Tyr was detected by UV absorption at 336 nm and quantified on the basis of a calibration curve generated by the authentic Tyr standard (Acros, Geel, Belgium).
# The crude enzyme extracts were first subjected to PDH and ADH assays using saturating conditions to screen for any detectable PDH and/or ADH activity (FIG. 3B and FIG. 3C). ADH activity was detected from all five candidates. In contrast, PDH activity was detected only in Glyma11a35760 and Glyma18g02650 as well as their closest homolog from Medicago (Mt3g071980) but not in Glyma5g07870, Glyma17g13150 and Glyma14g05990 (FIG. 3C).
# [4] = Inhibition analysis: L-Tyr sensitivity of PDH activity, crude E. coli extract expressing Glyma11g35760; conditions: for PDH activity: crude E. coli extract
# Procedure: For recombinant protein expression, the cloned pFT28a vectors were introduced into Rosetta-2 E. coli competent cells (Novagen) and cultured overnight at 37° C., 200 r.p.m. in 10 ml LB medium containing kanamycin (100 μg/ml) and chloramphenicol (100 μg/ml). Two milliliters of the overnight culture were transferred to 50 ml LB medium with the same antibiotics and further incubated at 37° C. and 200 r.p.m. until the OD600 reached 0.3. The temperature was then changed to 18° C. and, after 1 h, isopropyl β-D-I-thiogalactopyranoside (IPTG, […] final concentration) was added to induce recombinant protein expression. After overnight incubation at 18° C. under constant shaking at 200 r.p.m, cultures were harvested by centrifugation at 2,000 g for 30 min at 4° C. and the pellet was resuspended in an appropriate volume of lysis buffer (25 mM HEPES, pH 7, 50 mM KCl, 10% ethylene glycol, 1 mM phenylmethylsulfortyl fluoride (PMSF) and 1 mM DTT) calculated on the basis of the formula (OD600×ml volume of culture)/30. The resuspended pellet was sonicated three times for 15 s. The cell lysate was centrifuged at 16,000 g for 10 min at 4° C. and the supernatant was applied to a column containing 500 μl PerfectPro Ni-NTA resin (5 PRIME, Hamburg, Germany). The column was washed with ten times the bed volume of wash buffer 1 (50 mM sodium phosphate buffer, pH 8.0, 300 mM NaCl, 20 mM imidazole) followed by ten times the bed volume of wash buffer II (50 mM sodium phosphate buffer, pH 8.0, 300 mM NaCl, 40 mM imidazole) and then wash buffer III (50 mM sodium phosphate buffer, pH 8.0, 300 mM NaCl, 60 mM imidazole). The recombinant enzymes containing an N-terminal His6 tag were eluted from the resin with 1 ml of elution buffer (50 mM sodium phosphate buffer, pH. 8.0, 300 mM NaCl, 500 mM imidazole) and desalted as described above. The purity of the purified recombinant enzymes was estimated by running on SDS-PAGE gel (FIG. 12) and analyzing with ImageJ (http://imagej.nih.gov/ij/). The recombinant enzyme of Glyma11g35760 was tested for Tyr sensitivity (FIG. 5A) using crude E. coli extract as its purification was not successful owing to its low expression (FIG. 3B and FIG. 3C) and insolubility.
# (§3) ADH and PDH reactions using GmPDH1, Glyma11g35760, MtPDH1 and AtADH2 (FIG. 5A) contained 200 mM HEPES (pH 7.3), 50 mM KCl, 10% ethylene glycol, 1 mN4 NADP^+ and 1 mM substrate (L-arogenate or prephenate, respectively). Reactions were started by addition of enzyme and incubated at 37° C. for 15 min in the presence of increasing concentrations of effectors: L-Tyr FIG. 5A), L-Phe, L-Trp and HPP. Tyr was dissolved in basic conditions (0.025 N NaOH) to dissolve at high concentrations (up to 10 mM), though 200 mM HEPES maintained the final reaction pH at 7.6. Tyr sensitivity of purified recombinant GmPDH1 and MtPDH1 was also tested at prephenate concentrations ranging from […] to 59 μM, below the K values for GmPDH1 and MtPDH1, while keeping the L-Tyr concentration constant at 1 mM (FIG. 13). Enzyme activity was measured for the production of reduced cofactor (NADPH) at 340 nm using a spectrophotometer, except for crude soybean extracts, which were analyzed by HPLC after 45 min incubation and reduction to HPLA as described above.
# [5] = Inhibition analysis: L-Tyr sensitivity of ADH activity of recombinant AtADH2; conditions: for ADH activity: 1 mM L-arogenate, 1 mM NADP+, 37° C., 15 min
# Procedure: as §3
molecule,measurement,setting,value
"N[C@@H](Cc1c[nH]c2ccccc12)C(=O)O [L-Trp, tryptophan]",induction of CM activity in the plastid fraction,[1],approximately threefold
same,CM activity in the cytosol,[2],increased
"N[C@@H](Cc1ccc(O)cc1)C(=O)O [L-Tyr, Tyrosine]",CM activity in the plastid fraction,[1],completely inhibited
same,CM activity in the cytosol,[2],only slightly decreased
B1,PDH activity (qualitative detection),[3],detected
same,inhibition of PDH activity by L-Tyr,[4]; E. coli extract expressing the enzyme,not inhibited
same,PDH activity,[4]; L-Tyr 0 mM,1219 ± 76 pKat/mg
same,PDH activity,[4]; L-Tyr 0.01 mM,1211 ± 39 pKat/mg
same,PDH activity,[4]; L-Tyr 0.1 mM,1173 ± 16 pKat/mg
same,PDH activity,[4]; L-Tyr 1.0 mM,1250 ± 63 pKat/mg
same,PDH activity,[4]; L-Tyr 10 mM,1109 ± 79 pKat/mg
B2,PDH activity (qualitative detection),[3],not
B3,reduction of ADH activity,[5]; 100 μM L-Tyr,~75%
same,ADH activity,[5]; L-Tyr 0 mM,923 ± 34 uKat/mg
same,ADH activity,[5]; L-Tyr 0.01 mM,766 ± 35 uKat/mg
same,ADH activity,[5]; L-Tyr 0.1 mM,251 ± 45 uKat/mg
same,ADH activity in the presence of L-Tyr,[5]; ≧1 mM L-Tyr,abolished
